Measured values: patent publication US20090280535, “SUMO Fusion Protein Expression System for Producing Native Proteins” (Academia Sinica, published 2009)

Experiments:
RecA [1] = molecular target: T1, RecA (Escherichia coli, UniProt P0A7G6 P0A7G6:2-353); test: competition; 80 uM oligo competes against 8 uM ds-PhiX174 in EMSA; conditions: tags: none (released from His6-Smt3-RecA by Ulp1 403-621 cleavage)
Experimental: (§1) The biological activities of the purified RecA protein was tested as follows. First, an electrophoretic mobility shift assay was performed to examine whether the RecA protein was capable of binding to DNA, following the method described in Chen et al., Proc. Natl. Acad Sci USA 101: 10572-10577 (2004). […] Six oligonucleotides, i.e., (CT)₂₀, (CA)₂₀, (GT)₂₀, (GA)₂₀, (AT)₂₀, and (CG)₂₀ described in Biet et al., Nucleic Acids Res 27:596-600 (1999), were used to determine the preference of the RecA protein for binding to double-strand (ds) or single-strand (ss) DNAs. 80 μM of each of the oligonucleotides was incubated with the RecA protein in the presence of circular ds-ΦX174 (8 μM) DNA and then a mobility shift assay was performed to examine the binding between the RecA protein and the ds- or ss-DNAs.

RecA [2] = molecular target: T1, RecA; test: competition; 80 uM oligo competes against 8 uM ds-PhiX174 in EMSA; no significant effect at 2, 4 or 8 uM; conditions: tags: none (released from His6-Smt3-RecA by Ulp1 403-621 cleavage)
Experimental: as §1

T1 sequence (P0A7G6 2-353, one chain of several): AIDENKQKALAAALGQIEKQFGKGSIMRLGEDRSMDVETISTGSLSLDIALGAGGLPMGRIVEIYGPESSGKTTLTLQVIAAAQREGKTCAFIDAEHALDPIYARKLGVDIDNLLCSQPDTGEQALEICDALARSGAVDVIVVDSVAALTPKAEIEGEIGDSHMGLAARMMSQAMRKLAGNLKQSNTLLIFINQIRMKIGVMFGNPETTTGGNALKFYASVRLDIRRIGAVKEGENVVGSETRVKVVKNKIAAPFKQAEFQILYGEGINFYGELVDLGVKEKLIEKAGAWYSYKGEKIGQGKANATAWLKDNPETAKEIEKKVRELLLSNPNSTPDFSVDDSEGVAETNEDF

GAGAGAGAGAGAGAGAGAGAGAGAGAGAGAGAGAGAGAGA (ssDNA) [(GA)20]
binding result (RecA [1]): binds

CACACACACACACACACACACACACACACACACACACACA (ssDNA) [(CA)20]
binding result (RecA [1]): binds

GTGTGTGTGTGTGTGTGTGTGTGTGTGTGTGTGTGTGTGT (ssDNA) [(GT)20]
binding result (RecA [1]): binds

ATATATATATATATATATATATATATATATATATATATAT (ssDNA) [(AT)20]
binding result (RecA [1]): binds

CGCGCGCGCGCGCGCGCGCGCGCGCGCGCGCGCGCGCGCG (ssDNA) [(CG)20]
binding result (RecA [1]): binds

CTCTCTCTCTCTCTCTCTCTCTCTCTCTCTCTCTCTCTCT (ssDNA) [(CT)20]
binding result (RecA [2]): binds
